Patent US20240392020A1 (JIANGSU HENGRUI PHARMACEUTICALS, published 2024)
Where a chain is given by its changes, count along the chain named. Read-outs that look alike come from different tables or passages of the source.

T1: B7H3 on the recombinant cell line CT26-B7H3 (UniProt Q5ZPR3 29-534, limits assumed)
T1 construct: whole, on cells
T1 sequence (looked up): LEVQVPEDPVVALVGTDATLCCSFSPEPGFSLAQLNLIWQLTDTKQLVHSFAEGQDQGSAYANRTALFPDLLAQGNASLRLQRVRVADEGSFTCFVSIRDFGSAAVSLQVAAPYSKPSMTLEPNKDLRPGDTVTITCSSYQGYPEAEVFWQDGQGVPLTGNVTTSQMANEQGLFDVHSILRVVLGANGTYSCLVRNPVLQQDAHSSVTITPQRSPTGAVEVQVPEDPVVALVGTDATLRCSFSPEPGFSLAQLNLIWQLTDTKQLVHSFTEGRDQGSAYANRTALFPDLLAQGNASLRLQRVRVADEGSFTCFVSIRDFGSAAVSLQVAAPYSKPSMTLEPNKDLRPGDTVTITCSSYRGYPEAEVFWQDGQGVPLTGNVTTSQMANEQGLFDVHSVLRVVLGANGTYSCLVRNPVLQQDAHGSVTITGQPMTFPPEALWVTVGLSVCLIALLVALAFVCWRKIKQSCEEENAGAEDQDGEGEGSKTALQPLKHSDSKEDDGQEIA

B1: V1 (antibody)
heavy: not shown
light: QIVLTQSPAILSASPGEKVTMTCRASSSVSYMNWYQQKPGSSPKPWIYATSNLASGVPARFSVSVSGTSHSLTISRVEAEDAATYYCQQWSSNPLTFGAGTKLELKGILQPDPPANITVTAVARNPRWLSVTWQDPHSWNSSFYRLRFELRYRAERSKTFTTWMVKDLQHHCVIHDAWSGLRHVVQLRAQEEFGQGEWSEWSPEAMGTPW
B2: H2 (antibody)
heavy: not shown
light: DIQMTQSPSSVSASVGDRVTITCRASQDIANYLSWYQQKPGKSPKLLIYGTSNLEVGVPSRFSGSRSGTDFTLTISSLQPEDFATYYCLQDKEFPRTFGGGTKVEIKFDPVYKVKPNPPHNLSVINSEELSSILKLTWTNPSIKSVIILKYNIQYRTKDASTWSQIPPEDTASTRSSFTVQDLKPFTEYVFRIRCMKEDGKGYWSDWSEEASGIT
B3: H0 (antibody, human IgG1, kappa)
heavy: not shown
light: DIQMTQSPSSVSASVGDRVTITCRASQDIANYLSWYQQKPGKSPKLLIYGTSNLEVGVPSRFSGSRSGTDFTLTISSLQPEDFATYYCLQDKEFPRTFGGGTKVEIKRTVAAPSVFIFPPSDEQLKSGTASVVCLLNNFYPREAKVQWKVDNALQSGNSQESVTEQDSKDSTYSLSSTLTLSKADYEKHKVYACEVTHQGLSSPVTKSFNRGEC
B4: F1 (antibody)
heavy: not shown
light: DTVVTQEPSFSVSPGGTVTLTCGLSSGSVSTSHYPSWYQQTPGQAPRMLIYNTNTRSSGVPDRFSGSILGNKAALTITGAQADDESDYYCAIHVDRDIWVFGGGTKLTVLGILQPDPPANITVTAVARNPRWLSVTWQDPHSWNSSFYRLRFELRYRAERSKTFTTWMVKDLQHHCVIHDAWSGLRHVVQLRAQEEFGQGEWSEWSPEAMGTPW
B5: H1 (antibody)
heavy: not shown
light: DIQMTQSPSSVSASVGDRVTITCRASQDIANYLSWYQQKPGKSPKLLIYGTSNLEVGVPSRFSGSRSGTDFTLTISSLQPEDFATYYCLQDKEFPRTFGGGTKVEIKGILQPDPPANITVTAVARNPRWLSVTWQDPHSWNSSFYRLRFELRYRAERSKTFTTWMVKDLQHHCVIHDAWSGLRHVVQLRAQEEFGQGEWSEWSPEAMGTPW
B6: V4 (antibody)
heavy: not shown
light: QIVLTQSPAILSASPGEKVTMTCRASSSVSYMNWYQQKPGSSPKPWIYATSNLASGVPARFSVSVSGTSHSLTISRVEAEDAATYYCQQWSSNPLTFGAGTKLELKQGSPPCFLRFPRPVRVVSGAEAELKCVVLGEPPPVVVWEKGGQQLAASERLSFPADGAEHGLLLTAALPTDAGVYVCRARNAAGEAYAAAAVTVLEPP
B7: V0 (antibody, human IgG1, lambda)
heavy: not shown
light: QIVLTQSPAILSASPGEKVTMTCRASSSVSYMNWYQQKPGSSPKPWIYATSNLASGVPARFSVSVSGTSHSLTISRVEAEDAATYYCQQWSSNPLTFGAGTKLELKGQPKAAPSVTLFPPSSEELQANKATLVCLISDFYPGAVTVAWKADSSPVKAGVETTTPSKQSNNKYAASSYLSLTPEQWKSHRSYSCQVTHEGSTVEKTVAPTECS
B8: R1 (antibody)
heavy: not shown
light: DIQMTQSPSSLSASVGDRVTITCLASEGISSYLAWYQQKPGKAPKLLIYGANSLQTGVPSRFSGSGSATDYTLTISSLQPEDFATYYCQQSYKFPNTFGQGTKVEVKGILQPDPPANITVTAVARNPRWLSVTWQDPHSWNSSFYRLRFELRYRAERSKTFTTWMVKDLQHHCVIHDAWSGLRHVVQLRAQEEFGQGEWSEWSPEAMGTPW
B9: F11 (antibody)
heavy: not shown
light: DTVVTQEPSFSVSPGGTVTLTCGLSSGSVSTSHYPSWYQQTPGQAPRMLIYNTNTRSSGVPDRFSGSILGNKAALTITGAQADDESDYYCAIHVDRDIWVFGGGTKLTVLQGSPPEFLRFPRPVRVVSGAEAELKCVVLGEPPPVVVWEKGGQQLAASERLSFPADGAEHGLLLTAALPTDAGCYVCRARNAAGEAYAAAAVTVLEPP
B10: F14 (antibody)
heavy: not shown
light: B9 light with C136S, C187S
B11: F4 (antibody)
heavy: not shown
light: B9 light with E116C, C184V
B12: F12 (antibody)
heavy: not shown
light: B9 light with C184V, G194C
B13: F15 (antibody)
heavy: not shown
light: B9 light with C136S, C184V, C187S, G194C
B14: F13 (antibody)
heavy: not shown
light: B9 light with C184V, A196C
B15: F2 (antibody)
heavy: not shown
light: DTVVTQEPSFSVSPGGTVTLTCGLSSGSVSTSHYPSWYQQTPGQAPRMLIYNTNTRSSGVPDRFSGSILGNKAALTITGAQADDESDYYCAIHVDRDIWVFGGGTKLTVLFDPVYKVKPNPPHNLSVINSEELSSILKLTWTNPSIKSVIILKYNIQYRTKDASTWSQIPPEDTASTRSSFTVQDLKPFTEYVFRIRCMKEDGKGYWSDWSEEASGIT
B16: R0 (antibody, human IgG1, kappa)
heavy: not shown
light: DIQMTQSPSSLSASVGDRVTITCLASEGISSYLAWYQQKPGKAPKLLIYGANSLQTGVPSRFSGSGSATDYTLTISSLQPEDFATYYCQQSYKFPNTFGQGTKVEVKRTVAAPSVFIFPPSDEQLKSGTASVVCLLNNFYPREAKVQWKVDNALQSGNSQESVTEQDSKDSTYSLSSTLTLSKADYEKHKVYACEVTHQGLSSPVTKSFNRGEC
B17: R2 (antibody)
heavy: not shown
light: DIQMTQSPSSLSASVGDRVTITCLASEGISSYLAWYQQKPGKAPKLLIYGANSLQTGVPSRFSGSGSATDYTLTISSLQPEDFATYYCQQSYKFPNTFGQGTKVEVKFDPVYKVKPNPPHNLSVINSEELSSILKLTWTNPSIKSVIILKYNIQYRTKDASTWSQIPPEDTASTRSSFTVQDLKPFTEYVFRIRCMKEDGKGYWSDWSEEASGIT
B18: S4 (antibody)
heavy: not shown
light: DIQMTQSPASLSASVGDRVTITCRASENIFSYLAWYQQKPGKSPKLLVYNTRTLAEGVPSRFSGSGSGTDFSLTISSLQPEDFATYYCQHHYGTPFTFGSGTKLEIKGIPPKIEALPSDISIDEGKVLTVACAFTGEPTPEVTWSCGGRKIHSQEQGRFHIENTDDLTTLIIMDVQKQDGGLYTLSLGNEFGSDSATVNIHIRSI
B19: S3 (antibody)
heavy: not shown
light: DIQMTQSPASLSASVGDRVTITCRASENIFSYLAWYQQKPGKSPKLLVYNTRTLAEGVPSRFSGSGSGTDFSLTISSLQPEDFATYYCQHHYGTPFTFGSGTKLEIKQGSPPCFLRFPRPVRVVSGAEAELKCVVLGEPPPVVVWEKGGQQLAASERLSFPADGAEHGLLLTAALPTDAGVYVCRARNAAGEAYAAAAVTVLEPP
B20: V3 (antibody)
heavy: not shown
light: QIVLTQSPAILSASPGEKVTMTCRASSSVSYMNWYQQKPGSSPKPWIYATSNLASGVPARFSVSVSGTSHSLTISRVEAEDAATYYCQQWSSNPLTFGAGTKLELKSGAPRFLTRPKAFVVSVGKDATLSCQIVGNPTPQVSWEKDQQPVAAGARFRLAQDGDLYRLTILDLALGDSGQYVCRARNAIGEAFAAVGLQVDAEA
B21: F8 (antibody)
heavy: not shown
light: DTVVTQEPSFSVSPGGTVTLTCGLSSGSVSTSHYPSWYQQTPGQAPRMLIYNTNTRSSGVPDRFSGSILGNKAALTITGAQADDESDYYCAIHVDRDIWVFGGGTKLTVLSGAPRFLTRPKAFVVSVGKDATLSSQIVGNPTPQVSWEKDQQPVAAGARFRLAQDGDLYRLTILDLALGDSGQYVSRARNAIGEAFACVGLQVDAEA
B22: F5 (antibody)
heavy: not shown
light: B21 light with S135C, S186C
B23: F7 (antibody)
heavy: not shown
light: B21 light with R119C, S135C, S186C, C198A
B24: F6 (antibody)
heavy: not shown
light: B21 light with A113C, S135C, S186C, C198A
B25: F9 (antibody)
heavy: not shown
light: B21 light with A113C, C198A
B26: F3 (antibody)
heavy: not shown
light: B21 light with S135C, S186C, C198A
B27: F10 (antibody)
heavy: not shown
light: B21 light with R119C, C198A

Legend:
[1] = target: T1, B7H3 on the recombinant cell line …; test: FACS, CT26-B7H3 cells
hIL-5 = target: T2, hIL-5 (human, UniProt P05113 20-134); test: ELISA
T2 construct: bought
Experimental: For an antibody targeting a soluble protein, the binding activity of the antibody against the soluble protein was detected by ELISA. […] After the blocking was completed, the blocking solution was discarded; and the plate was washed 3 times with a PBST buffer (pH 7.4, PBS containing 0.1% tween-20). 100 μL of the antibody solution diluted in a gradient was added to each well, and the mixture was incubated at 37° C. for 1 h. After the incubation was completed, the plate was washed 3 times with PBST. […] The plate was washed 3 times with PBST. […] The reaction was stopped by adding 50 μL of 1 M H₂SO₄ to each well. The absorbance values at 450 nm were read on a microplate reader, the binding curves of the antibodies to an antigen were fitted with software, and the EC₅₀ values were calculated.

[2] = target: T1, B7H3 on the recombinant cell line …; test: FACS, CT26-B7H3 cells; remark: listed apart in the source

Binder	EC50 [1]	EC50 (hIL-5)	EC50 [2]
B1	38.4 nM	–	–
B2	–	24.4 nM	–
B3	–	1.74 nM	–
B4	71.6 nM	–	–
B5	–	19.4 nM	–
B6	2.9 nM	–	–
B7	1.8 nM	–	–
B8	–	24.4 nM	–
B9	–	–	6.15 nM
B10	–	–	5.15 nM
B11	2.17 nM	–	3.01 nM
B12	–	–	8.19 nM
B13	–	–	4.44 nM
B14	–	–	6.08 nM
B15	59.3 nM	–	–
B16	–	1.75 nM	–
B17	–	18.4 nM	–
B18	1.96 nM	–	–
B19	3.5 nM	–	–
B20	3.6 nM	–	–
B21	–	–	3.14 nM
B22	–	–	1.21 nM
B23	–	–	3.38 nM
B24	–	–	2.71 nM
B25	–	–	3.52 nM
B26	2.83 nM	–	2.64 nM
B27	–	–	3.94 nM
